Where two headings read alike, the source gives them in different places. One block for each binder: values may come before it.
How the values were obtained:
Assay in all cases: co-sedimentation
[1] = target: T1, filamentous actin (F-actin), chicken skeletal muscle (chicken, UniProt P68139 1-377)
[2] = target: T1, filamentous actin (F-actin), chicken …; remark: listed apart in the source
[3] = target: T1, filamentous actin (F-actin), chicken …; remark: listed apart in the source

stoichiometry N [1]: 0.5 Arg per actin monomer
B1: Abl2/Arg (Abelson-related gene) nonreceptor tyrosine kinase (enzyme)
chain: MGQQVGRVGEAPGLQQPQPRGIRGSSAARPSGRRRDPAGRTADAGFNVFTQHDHFASCVEDGFEGDKTGGSSPEVLHRPFGCDAESQALNEAIRWSSKENLLGATESDPNLFVALYDFVASGDNTLSITKGEKLRVLGYNQNGEWSEVRSKNGQGWVPSNYITPVNSLEKHSWYHGPVSRSAAEYLLSSLINGSFLVRESESSPGQLSISLRYEGRVYHYRINTTTDSKVYVTAESRFSTLAELVHHHSTVADGLVTTLHYPAPKCNKPTVYGVSPIHDKWEMERTDITMKHKLGGGQYGEVYVGVWKKYSLTVAVKTFKEDTMEVEEFLKEAAVMKEIKHPNLVQLLGVCTLEPPFYIVTEYMPYGNLLDYLRECSREEVTAVVLLYMATQISSAMEYLEKKNFIHRDLAARNCLVGENHVVKVADFGLSRLMTGDTYTAHAGAKFPIKWTAPESLAYNTFSIKSDVWAFGVLLWEIATYGMSPYPGIDLSQVYDLLEKGYRMEQPEGCPPKVYELMRACWKWSPADRPSFAETHQAFETMFHDSSISEEVAEELGRTASSSSVVPYLPRLPLLPSKTRTLRKQGENKENLDGGLDAAESLASSSAPAGFIRSTQASSGSPALPRKQRDKSPSSLLEDAKETCFTRDRKGGFFSSFMKKRNAPTPPKRSSSFREMENQPHKKYELTGNFSPVASLQNADGFSVAPSQQEPNLVPAKCYGGSFAQRNLCADDDSGGGGGSGTAGGGWSGITGFFTPRLIKKTLGLRAGKPTASDDTSKPFPRSNSTSSMSSGLPEQDRMAMTLPRNCQRSKLQLERTVSTSSQPEENVDRANDMLPKKSEEGAAPARERPKAKLLPRGATALPLRAPDPAITESDSPGVGVAGVAAAPKGKERNGGTRLGVAGVPEDGEQLGWSSPAKAVAVLPTTHNHKVPVLISPTLKHTPADVQLIGTDSQGNKFKLLSEHQVTSSGDKDRPRRVKPKCAPPPPPVMRLLQHPSTCSDPEEEPTAPPAGQHTPETQEGGKKAAPGPVPSSGKPGRPVMPPPQVPLPTSSISPAKMANGTAGTKVALRKTKQAAEKISADKISKEALLECADLLSSAITEPVPNSQLVDTGHQLLDYCSGYVDSIPQTRNKFAFREAVSKLELSLQELQVSSTAAGVPGTNPVLNNLLSCVQEISDVVQR

stoichiometry N [2]: 0.25 cortactin per actin monomer
B2: cortactin (natural protein)
chain: not shown
modifications: exhibits tyrosine phosphorylation as purified from insect cells (anti-phosphotyrosine blot); sites not mapped here

fold decrease in affinity for F-actin in the presence of saturating Arg [3]: ~3 fold | stoichiometry N [3]: 0.5 cortactin per actin monomer | stoichiometry N [2]: 0.25 cortactin per actin monomer
B3: cortactin 3YF (natural protein)
chain: not shown

fold decrease in affinity for F-actin in the presence of saturating Arg [3]: ~3 fold
B4: cortactin W525A, enzymatically dephosphorylated (natural protein)
chain: not shown
modifications: dephosphorylated with CIP (no tyrosine phosphorylation on the anti-phosphotyrosine blot)

stoichiometry N [3]: 0.5 cortactin per actin monomer | stoichiometry N [2]: 0.25 cortactin per actin monomer
B5: cortactin W525A (natural protein)
chain: not shown
modifications: exhibits tyrosine phosphorylation as purified from insect cells (anti-phosphotyrosine blot); sites not mapped here
